Results taken from the Immune Epitope Database (IEDB).

Experiments:
HLA-A*02:01 = assay: IEDB peptide-MHC binding, cellular MHC/competitive/fluorescence; ≥ and ≤ were set here for values at or beyond the usual limits of such assays; conditions: source organism: Vaccinia virus WR
HLA-A*02:02 = assay: IEDB peptide-MHC binding, purified MHC/competitive/radioactivity; ≥ and ≤ were set here for values at or beyond the usual limits of such assays
HLA-A*02:03 = assay: as above
HLA-A*02:06 = assay: as above
HLA-A*68:02 = assay: as above
[1] = source organism: Vaccinia virus WR
[2] = source organism: Influenza A virus

Sequence | IC50 (HLA-A*02:01) [µM] | also measured
CIKSHSVSLV | ≥ 70 | –
NAKCIEYVTL | 38 | –
ITDAAVAVAA | 6.51 | –
DIEPDLENNL | 54.4 | –
IMKTPGNTDA | 9.42 | –
EILTVKRPLL | ≥ 70 | –
DAFSREYSM | 7.57 | –
HLNPSRIRIT | ≥ 70 | –
SVETITEKT | ≥ 70 | –
GASYISCTA | 7.35 | –
LIVRLNQCM | 19.8 | –
IVEHLRDQSI | ≥ 70 | –
IVARRKDQT | ≥ 70 | –
FINDRMKKDI | ≥ 70 | –
FLDDSNKRKV | 8.41 | –
SADDIQAIM | 12.1 | –
KITFALKKLI | 64.7 | –
EQEIESLEA | 26.3 | –
YIRNTLTEKI | 38.4 | –
ETIGNQLYLT | 14.6 | –
STILNSIDI | 7.49 | –
EVRKYFCVKT | 23.2 | –
IIIVALTIM | 9.64 | –
YITSGKNNM | 51.6 | –
LTAVEHIPTM | 7.83 | –
PAAMYQYIFL | 5.57 | –

Sequence | IC50 (HLA-A*02:01) [µM] | also measured
SIPLMKRLT | ≥ 70 | –
GIVLSNTST | 20.2 | –
DVTAKSSFV | 8.56 | –
EVFINDNGI | ≥ 70 | –
DLVKSYSLI | ≥ 70 | –
NVVSSSTIAT | ≥ 70 | –
WLTAVEHIPT | 6.96 | –
TMPTYKHLI | 27.3 | –
EVSYFTNKRT | 66.1 | –
QISQCQRINM | 19 | –
KAMCNTRDT | 51.6 | –
DANVVSSST | 7.63 | –
RTDTTICLSI | 11 | –
ILFLLFVCI | 5.69 | –
TLPNKSDVLI | 5.32 | –
ILYKVRKNFT | 7.65 | –
DTSCDFESVT | ≥ 70 | –
SLFIESSICL | – | IC50 (HLA-A*02:02; [1]): 0.099 µM; IC50 (HLA-A*02:03; [1]): 0.293 µM; IC50 (HLA-A*02:06; [1]): 0.982 µM; IC50 (HLA-A*68:02; [1]): 2.16 µM
GTLDFFKQT | 49.5 | –
GVIFLISVI | 12.1 | –
CISQHQHLAI | 11 | –
NIHNHMIKV | 6.46 | –
VATDPDADAI | ≥ 70 | –
DANVVSSSTI | ≥ 70 | –
PVLPICVRT | 7.3 | –
NTRDTQQHPI | ≥ 70 | –

Sequence | IC50 (HLA-A*02:01) [µM] | also measured
CTVPTMNNA | 16.1 | –
EVASTHDWST | ≥ 70 | –
NQHNIIVEHL | ≥ 70 | –
QLPMEDNSDI | 38.5 | –
AVEHIPTMKI | 14.3 | –
DVGYEVIGA | 32.3 | –
TMSTPMTEYI | 7.95 | –
VVKYLSGGGI | ≥ 70 | –
FTNKRTRGPL | 16.2 | –
CVVYPGNGFV | 24.9 | –
LIANIHNHMI | 5.99 | –
KLKYFLGSGA | 7.19 | –
MLLRSAIGQV | – | IC50 (HLA-A*02:02; [2]): 1.39 µM; IC50 (HLA-A*02:03; [2]): 0.007 µM; IC50 (HLA-A*02:06; [2]): 0.242 µM; IC50 (HLA-A*68:02; [2]): 1.71 µM
IVISPMGKLT | 52.6 | –
KIAISSLNKL | 36.6 | –
IAHLLEHLL | 14.1 | –
NISTIQESFI | ≥ 70 | –
IVTLQKVLHV | 32.9 | –
ETSFIFIET | 8.82 | –
GATLYRFKHI | ≥ 70 | –
ILANRDSTL | 11 | –
EIRDQYITA | ≥ 70 | –
HLLISFDST | 28.1 | –
EAAITDAAVA | 26.3 | –
TQHPDYAILA | 6.73 | –
IAFSSGTVI | 43.9 | –

Sequence | IC50 (HLA-A*02:01) [µM] | also measured
VIKCMIDEGA | 9.87 | –
MVISLLSMIT | 9.75 | –
VLTTPGLNHA | ≥ 70 | –
TVRSIITDA | 10.2 | –
NIGKIIMSL | 7.04 | –
AVAVAAASST | 51.7 | –
GTVINEDIV | 35.7 | –
KQRTPGIITI | 53.2 | –
IIKKNDIVRV | 48.4 | –
DAYNIADAA | ≥ 70 | –
FASGNSIDDI | 9.21 | –
LVFIKPPLIT | 38.9 | –
IIPSSIPVST | 17.1 | –
IVRCCAGDDI | 10.7 | –
GAMVEYVST | 24.8 | –
PINAPIKTFM | 7.62 | –
IVRLNQCMSA | 7.46 | –
IQKSSSIDV | 15.9 | –
DLENNLVKL | 16.2 | –
NMLSTVLGV | – | IC50 (HLA-A*02:03; [2]): 0.01 µM; IC50 (HLA-A*02:06; [2]): 0.071 µM
LQKFSFKIAI | ≥ 70 | –
VVRRTMLSDI | 8.52 | –
IQQLYEFRKV | 8.74 | –
IQAKTKNFT | ≥ 70 | –
LTNVVNISTI | ≥ 70 | –
RVETSPRPTA | 36.5 | –

Sequence | IC50 (HLA-A*02:01) [µM] | also measured
TLTGSPSST | 28.6 | –
NAECQPLQL | 14.3 | –
TIGNQLYLT | 18.3 | –
ALNISSTKT | 21.1 | –
DIIDFLEGAL | 23.2 | –
QARNIQKIT | 6.7 | –
SVEPYTSNI | 17.3 | –
SANEAAITDA | 10.2 | –
DMLVNRMQRI | 11.7 | –
DLYNGGRIDM | 29.5 | –
VTSSGAIYKL | 16.1 | –
LVTKYPMDNV | 12.9 | –
KVRIFINDRM | 39.7 | –
ELNLSKFMM | 7 | –
SISIKLTDSL | 6.24 | –
SQHQHLAIM | 13.5 | –
TIIERSKKFI | 45.1 | –
MASLLYLIL | 9.14 | –
GAIKCEGLDV | 49 | –
VISLLSMITM | 10.8 | –
KTLDFKSKKV | 52.8 | –
FVFYKPKHST | ≥ 70 | –
GIAHLLEHLL | 7.4 | –
